US20260159579A1 (Pfizer, published 2026)

Key:
human BMP9 = target: T1, human BMP9 (human, UniProt Q9UK05 320-429); experiment: BLI, OctetRED 384; family member amine coupled to AR2G biosensor
T1 construct: Bought
T1 sequence (looked up): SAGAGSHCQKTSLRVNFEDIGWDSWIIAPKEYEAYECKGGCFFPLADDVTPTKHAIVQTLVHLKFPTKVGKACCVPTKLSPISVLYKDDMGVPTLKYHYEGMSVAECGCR
Method: (§1) To assess the binding specificity of GDF15_001 to human GDF15, GDF15_001 binding to additional TGFB family members was tested. Analysis was carried out on an Octet Red instrument.
(§2) The TGFB family members were diluted to 10 ug/ml in 10 mM Sodium Acetate pH 4.5 and amine coupled onto AR2G biosensors (catalogue #18-5092, ForteBio) according to the manufacturer's instructions. Monomeric GDF15_001 was diluted to 200 nM in kinetics buffer (catalogue #18-5032 ForteBio). Octet assays were conducted at room temperature with an association time of 300 seconds and a dissociation time of 180 seconds. The data was double referenced (Myszka, D., J. Mol. Recognit 1999; 279-284) and analyzed with Octet Data Analysis software version 8.1 (ForteBio).

human TGFß-1 = target: T2, human TGFß-1 (human, UniProt P01137 279-390); experiment: as above
T2 construct: Bought; also called TGFB-1
Method: as §1, §2

human BMP11 = target: T3, human BMP11 (human, UniProt O95390 299-407); experiment: as above
T3 construct: Bought; also called GDF-11
T3 sequence (looked up): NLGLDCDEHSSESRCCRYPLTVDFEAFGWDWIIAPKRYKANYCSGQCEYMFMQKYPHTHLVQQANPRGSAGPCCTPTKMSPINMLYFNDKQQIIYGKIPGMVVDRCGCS
Method: as §1, §2

human GDF8 = target: T4, human GDF8 (human, UniProt O14793 267-375, limits assumed); experiment: as above
T4 construct: In-house material
T4 sequence (looked up): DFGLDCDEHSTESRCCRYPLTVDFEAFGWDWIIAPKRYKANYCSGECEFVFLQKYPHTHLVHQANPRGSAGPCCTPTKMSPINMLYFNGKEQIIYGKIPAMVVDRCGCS
Method: as §1, §2

human BMP2 = target: T5, human BMP2 (human, UniProt P12643 283-396); experiment: as above
T5 construct: Bought
Method: as §1, §2

human Inhibin A = target: T6, human Inhibin A (human, UniProt P05111 233-366; P08476 311-426); experiment: as above
T6 construct: Bought
T6 sequence (looked up) 1: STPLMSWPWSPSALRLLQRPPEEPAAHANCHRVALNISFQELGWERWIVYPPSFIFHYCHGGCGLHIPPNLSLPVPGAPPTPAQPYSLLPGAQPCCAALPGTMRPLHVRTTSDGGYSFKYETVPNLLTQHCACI
T6 sequence (looked up) 2: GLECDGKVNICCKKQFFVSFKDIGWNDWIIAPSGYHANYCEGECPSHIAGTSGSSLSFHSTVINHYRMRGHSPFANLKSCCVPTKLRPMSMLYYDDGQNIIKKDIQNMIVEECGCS
Method: as §1, §2

human BMP6 = target: T7, human BMP6 (human, UniProt P22004 382-513, limits assumed); experiment: as above
T7 construct: Bought
T7 sequence (looked up): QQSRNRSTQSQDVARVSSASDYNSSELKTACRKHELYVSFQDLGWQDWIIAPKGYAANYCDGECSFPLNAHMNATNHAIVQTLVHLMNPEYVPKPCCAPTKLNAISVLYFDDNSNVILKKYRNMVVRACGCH
Method: as §1, §2

human Activin B = target: T8, human Activin B (human, UniProt P09529 293-407); experiment: as above
T8 construct: Bought
T8 sequence (looked up): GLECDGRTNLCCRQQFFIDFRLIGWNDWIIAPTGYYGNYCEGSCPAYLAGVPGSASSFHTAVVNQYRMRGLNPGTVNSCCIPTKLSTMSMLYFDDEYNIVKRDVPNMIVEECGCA
Method: as §1, §2

[1] = target: T9, Mouse Fc-human GDF15 (Mu IgG1Fc_Fxa_Hu GDF15) (human); experiment: SPR BIAcore T200, 37C; Fc-GDF15 captured, monomeric Fc-Fab as analyte; human GDF15 ligand (Mu IgG1Fc_Fxa_Hu GDF15), second run
T9 construct: Whole entry is the fusion: mouse IgG1 Fc, FXa site and linker, mature human GDF15; described as dimeric; also called Murine dimeric IgG1 Fc-human GDF-15 with FXa cleavage site; control human GDF15
T9 chain: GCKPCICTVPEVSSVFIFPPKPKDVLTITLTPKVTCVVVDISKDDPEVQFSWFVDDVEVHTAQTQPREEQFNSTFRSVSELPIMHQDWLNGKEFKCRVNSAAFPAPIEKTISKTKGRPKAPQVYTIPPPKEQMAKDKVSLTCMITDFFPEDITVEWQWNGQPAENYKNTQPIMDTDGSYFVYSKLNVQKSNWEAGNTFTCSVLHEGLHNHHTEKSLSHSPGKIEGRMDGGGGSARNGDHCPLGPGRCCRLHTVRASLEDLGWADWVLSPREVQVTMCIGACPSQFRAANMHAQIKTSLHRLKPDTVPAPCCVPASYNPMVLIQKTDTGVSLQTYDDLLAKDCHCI
Text: To understand the KD value, without the avidity effect, of GDF15_001 binding to GDF15, monomeric Fc-Fab was produced and tested in the same assay used in Example 2. […] Mu IgG1Fc_Fxa_Hu GDF15, Mu IgG1Fc_Fxa_Mu GDF15 and Mu IgG1Fc_Fxa_Cyno GDF15 were captured onto three different flow cells of a CM4 sensorchip (catalogue number BR100534, GE Healthcare) surface using the Mouse Antibody Capture Kit (BR100838, GE Healthcare) according to the manufacturer's protocol. The running and sample buffer was 10 mM HEPES pH 7.4, 0.15M NaCl, 3 mM EDTA, 0.05% P-20 (HBS-EP+). The final capture levels of Mu IgG1Fc_Fxa_Hu GDF15, Mu IgG1Fc_Fxa_Mu GDF15 and Mu IgG1Fc_Fxa_Cyno GDF15 were 19 resonance units (RU), 22 RU and 19 RU respectively. Flow cell 1 was used as a reference flow cell. […] The dissociation was monitored for 1200 seconds and the surface was regenerated with 10 mM Glycine pH 1.7. Binding affinities and rate constants were determined by fitting the resulting sensorgram data to a 1:1 Langmuir model in BIAcore T200 Evaluation software version 2.0 (GE Healthcare).

[2] = target: Mouse Fc-mouse GDF15 (Mu IgG1Fc_Fxa_Mu GDF15) (mouse); experiment: SPR BIAcore T200, 37C; Fc-GDF15 captured, monomeric Fc-Fab as analyte; murine GDF15 ligand (Mu IgG1Fc_Fxa_Mu GDF15), second run

T5 sequence (P12643 283-396 limits assumed): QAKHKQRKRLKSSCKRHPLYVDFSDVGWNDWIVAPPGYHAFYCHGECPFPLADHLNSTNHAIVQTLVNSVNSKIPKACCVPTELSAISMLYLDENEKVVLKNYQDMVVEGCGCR
T2 sequence (P01137 279-390 limits assumed): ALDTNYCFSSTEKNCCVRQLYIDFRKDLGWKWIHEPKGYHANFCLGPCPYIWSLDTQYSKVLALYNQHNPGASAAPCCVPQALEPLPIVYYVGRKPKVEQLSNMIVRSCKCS

B1: monomeric GDF15_001 (CH23LS-GBT-GDF15_001) (Fab, V domains shown)
VH: QVQLVQSGAEVKKPGSSVKVSCKASGYTFSSYNIDWVRQAPGQGLEWMGGINPIFGTAFYNQKFQGRVTITADESTSTAYMELSSLRSEDTAVYYCAREAITTVGAMDHWGQGTLVTVSS
VL: EIVLTQSPATLSLSPGERATLSCRTSQSVHNYLAWYQQKPGQAPRLLIYDASTRADGIPARFSGSGSGTDFTLTISSLEPEDFAVYYCQQFWSWPWTFGQGTKVEIK
notes: Monovalent 'monomeric Fc-Fab' of GDF15_001 made to measure KD without avidity; also called CH23LS-GDF15_001; monomeric Fc-Fab
binding result (human BMP9): no binding (tested: 200 nM)
binding result (human TGFß-1): no binding (tested: 200 nM)
binding result (human BMP11): no binding (tested: 200 nM)
binding result (human GDF8): no binding (tested: 200 nM)
binding result (human BMP2): no binding (tested: 200 nM)
binding result (human Inhibin A): no binding (tested: 200 nM)
binding result (human BMP6): no binding (tested: 200 nM)
binding result (human Activin B): no binding (tested: 200 nM)
Kd [1]: 0.0276 nM
Kd [2]: 1.82 nM
